Reference: IntAct's records for PubMed 23603394

B1: PH and SEC7 domain-containing protein 1 (Homo sapiens), A5PKW4 (parent)
chain: MAQGAMRFCSEGDCAISPPRCPRRWLPEGPVPQSPPASMYGSTGSLLRRVAGPGPRGRELGRVTAPCTPLRGPPSPRVAPSPWAPSSPTGQPPPGAQSSVVIFRFVEKASVRPLNGLPAPGGLSRSWDLGGVSPPRPTPALGPGSNRKLRLEASTSDPLPARGGSALPGSRNLVHGPPAPPQVGADGLYSSLPNGLGGPPERLATLFGGPADTGFLNQGDTWSSPREVSSHAQRIARAKWEFFYGSLDPPSSGAKPPEQAPPSPPGVGSRQGSGVAVGRAAKYSETDLDTVPLRCYRETDIDEVLAEREEADSAIESQPSSEGPPGTAYPPAPRPGPLPGPHPSLGSGNEDEDDDEAGGEEDVDDEVFEASEGARPGSRMPLKSPVPFLPGTSPSADGPDSFSCVFEAILESHRAKGTSYTSLASLEALASPGPTQSPFFTFELPPQPPAPRPDPPAPAPLAPLEPDSGTSSAADGPWTQRGEEEEAEARAKLAPGREPPSPCHSEDSLGLGAAPLGSEPPLSQLVSDSDSELDSTERLALGSTDTLSNGQKADLEAAQRLAKRLYRLDGFRKADVARHLGKNNDFSKLVAGEYLKFFVFTGMTLDQALRVFLKELALMGETQERERVLAHFSQRYFQCNPEALSSEDGAHTLTCALMLLNTDLHGHNIGKRMTCGDFIGNLEGLNDGGDFPRELLKALYSSIKNEKLQWAIDEEELRRSLSELADPNPKVIKRISGGSGSGSSPFLDLTPEPGAAVYKHGALVRKVHADPDCRKTPRGKRGWKSFHGILKGMILYLQKEEYKPGKALSETELKNAISIHHALATRASDYSKRPHVFYLRTADWRVFLFQAPSLEQMQSWITRINVVAAMFSAPPFPAAVSSQKKFSRPLLPSAATRLSQEEQVRTHEAKLKAMASELREHRAAQLGKKGRGKEAEEQRQKEAYLEFEKSRYSTYAALLRVKLKAGSEELDAVEAALAQAGSTEDGLPPSHSSPSLQPKPSSQPRAQRHSSEPRPGAGSGRRKP

Variants of: B1
Details: with arf6_human ARF6, P62330
Sequence of arf6_human ARF6, P62330 (P62330 whole entry): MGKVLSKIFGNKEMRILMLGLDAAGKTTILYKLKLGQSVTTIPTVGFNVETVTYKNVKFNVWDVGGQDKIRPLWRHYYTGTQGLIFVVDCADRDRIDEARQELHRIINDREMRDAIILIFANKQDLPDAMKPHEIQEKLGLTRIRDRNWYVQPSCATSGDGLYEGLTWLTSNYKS

Variant	effect of a mutation on the interaction
E621K	disrupting interaction

Variants of: B1
Details: with arf6_human ARF6, P62330
Remark: another data set of the same source

Variant	effect of a mutation on the interaction
E621K	decreasing interaction

Variants of: B1
Details: with arf6_human ARF6, P62330
Remark: another data set of the same source

Variant	effect of a mutation on the interaction
K766E	decreasing interaction
R765E	decreasing interaction
